# Laboratory results taken from publication PMC10567733, “C9orf72-catalyzed GTP loading of Rab39A enables HOPS-mediated membrane tethering and fusion in mammalian autophagy” (Nature Communications, 2023).
# T1: VPS41-Flag (human, UniProt P49754 1-854)
# T1 construct: VPS41, human, cloned from human cDNA (293T cells); also called V41; not shown: Flag, C-terminal, kept
# T1 sequence (looked up): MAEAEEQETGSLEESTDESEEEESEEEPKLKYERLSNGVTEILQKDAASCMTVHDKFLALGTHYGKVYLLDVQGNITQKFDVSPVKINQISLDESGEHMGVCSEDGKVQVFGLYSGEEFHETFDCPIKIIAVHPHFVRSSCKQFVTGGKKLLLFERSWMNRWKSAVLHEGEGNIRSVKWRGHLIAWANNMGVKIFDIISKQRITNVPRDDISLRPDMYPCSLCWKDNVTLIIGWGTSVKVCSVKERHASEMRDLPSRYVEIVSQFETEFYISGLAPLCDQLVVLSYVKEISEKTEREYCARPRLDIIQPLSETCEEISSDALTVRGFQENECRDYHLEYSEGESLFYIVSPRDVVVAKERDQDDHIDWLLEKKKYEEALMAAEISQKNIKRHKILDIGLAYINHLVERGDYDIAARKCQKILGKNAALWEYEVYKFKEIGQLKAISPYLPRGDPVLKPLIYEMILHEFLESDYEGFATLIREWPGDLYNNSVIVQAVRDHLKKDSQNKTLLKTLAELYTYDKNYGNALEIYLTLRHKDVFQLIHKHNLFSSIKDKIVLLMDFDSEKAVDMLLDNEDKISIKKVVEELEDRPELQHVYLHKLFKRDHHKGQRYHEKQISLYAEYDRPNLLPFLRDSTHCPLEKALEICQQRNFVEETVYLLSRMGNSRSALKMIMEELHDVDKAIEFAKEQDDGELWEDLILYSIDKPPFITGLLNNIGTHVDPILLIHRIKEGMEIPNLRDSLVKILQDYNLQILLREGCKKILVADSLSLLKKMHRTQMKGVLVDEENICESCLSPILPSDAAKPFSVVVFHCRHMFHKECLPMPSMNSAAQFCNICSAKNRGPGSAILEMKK
# T2: Myc-C9orf72 (human, UniProt Q96LT7 1-481)
# T2 construct: C9orf72, human, cloned from human cDNA; source: E. coli BL21 (DE3), purified (Glutathione Sepharose, eluted by TEV cleavage or GSH); not shown: Myc, N-terminal, kept
# T2 sequence (looked up): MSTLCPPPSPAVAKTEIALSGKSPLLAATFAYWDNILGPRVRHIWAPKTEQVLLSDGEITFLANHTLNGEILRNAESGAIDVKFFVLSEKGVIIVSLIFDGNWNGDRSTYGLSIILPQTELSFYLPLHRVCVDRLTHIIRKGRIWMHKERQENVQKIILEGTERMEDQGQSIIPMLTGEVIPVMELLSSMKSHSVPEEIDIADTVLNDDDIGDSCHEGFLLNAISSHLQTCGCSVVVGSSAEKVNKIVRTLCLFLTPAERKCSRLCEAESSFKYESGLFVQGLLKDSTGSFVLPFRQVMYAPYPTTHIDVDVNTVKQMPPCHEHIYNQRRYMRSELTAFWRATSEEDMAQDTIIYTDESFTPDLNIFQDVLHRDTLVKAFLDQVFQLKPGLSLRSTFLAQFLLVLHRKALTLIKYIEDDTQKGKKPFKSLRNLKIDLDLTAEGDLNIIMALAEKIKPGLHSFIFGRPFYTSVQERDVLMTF
# Key:
# VPS41-Flag = target: T1, VPS41-Flag; assay: pull-down; Glutathione Sepharose beads bound with GST, GST-Rab39A or GST-Rab39B, incubated with the purified protein for one hour, washed, boiled, immunoblot; conditions: both partners purified
# Myc-C9orf72 = target: T2, Myc-C9orf72; assay: as above; conditions: both partners purified
binding result (VPS41-Flag),binding result (Myc-C9orf72),Binder
binds,binds,"GST-Rab39A (natural protein, human, UniProt Q14964 1-217, looked up, Rab39A, human, cloned from human cDNA; unprenylated; also called GST-R39A; purified Rab39A; source: E. coli BL21 (DE3), purified (Glutathione Sepharose); not shown: GST, N-terminal, kept) METIWIYQFRLIVIGDSTVGKSCLLHRFTQGRFPGLRSPACDPTVGVDFFSRLLEIEPGKRIKLQLWDTAGQERFRSITRSYYRNSVGGFLVFDITNRRSFEHVKDWLEEAKMYVQPFRIVFLLVGHKCDLASQRQVTREEAEKLSADCGMKYIETSAKDATNVEESFTILTRDIYELIKKGEICIQDGWEGVKSGFVPNTVHSSEEAVKPRKECFC"
binds,binds,"GST-Rab39B (natural protein, human, UniProt Q96DA2 1-213, looked up, Rab39B, human, cloned from human cDNA; unprenylated; also called GST-R39B; purified Rab39B; source: E. coli BL21 (DE3), purified (Glutathione Sepharose); not shown: GST, N-terminal, kept) MEAIWLYQFRLIVIGDSTVGKSCLIRRFTEGRFAQVSDPTVGVDFFSRLVEIEPGKRIKLQIWDTAGQERFRSITRAYYRNSVGGLLLFDITNRRSFQNVHEWLEETKVHVQPYQIVFVLVGHKCDLDTQRQVTRHEAEKLAAAYGMKYIETSARDAINVEKAFTDLTRDIYELVKRGEITIQEGWEGVKSGFVPNVVHSSEEVVKSERRCLC"
